# Results from paper PMC10767699, “Custom Design of a Humidifier Chamber for InMeso Crystallization” (Crystal Growth & Design, 2023).
# B1: transmembrane aspartate transporter GltTk from Thermococcus kodakarensis (natural protein)
# chain: MGKSLLRRYLDYPVLWKILWGLVLGAVFGLIAGHFGYAGAVKTYIKPFGDLFVRLLKMLVMPIVLASLVVGAASISPARLGRVGVKIVVYYLATSAMAVFFGLIVGRLFNVGANVNLGSGTGKAIEAQPPSLVQTLLNIVPTNPFASLAKGEVLPVIFFAIILGIAITYLMNRNEERVRKSAETLLRVFDGLAEAMYLIVGGVMQYAPIGVFALIAYVMAEQGVRVVGPLAKVVGAVYTGLFLQIVITYFILLKVFGIDPIKFIRKAKDAMITAFVTRSSSGTLPVTMRVAEEEMGVDKGIFSFTLPLGATINMDGTALYQGVTVLFVANAIGHPLTLGQQLVVVLTAVLASIGTAGVPGAGAIMLAMVLQSVGLDLTPGSPVALAYAMILGIDAILDMGRTMVNVTGDLAGTVIVAKTEKELDESKWISHHHHHHHH
# Molecular target: the molecule itself
# Assay: crystal structure; in meso (monoolein mesophase) crystallization of apo GltTk, 21 °C; space groups H3_(2) and P6_(3)22; one protomer in the asymmetric unit, trimer generated by crystal symmetry
protein,measurement,value
B1,stoichiometry N,3
